One experiment deals with T1, Human CLDN18.1 (human, UniProt P56856 1-261).
T1 construct: also called hCLDN18.1
Put plainly: flow cytometry, 293T-hCLDN18.1 cells.

Experiment [1] deals with T2, Human CLDN18.2 (human).
T2 construct: the cell line is named under assay; also called hCLDN18.2; human CLDN18.2 antigen
Put plainly: flow cytometry, NUGC4 cells (endogenous CLDN18.2).
Procedure: (§1) NUGC4 and NUGC4-hCLDN18.2 cells were cultured, digested with pancreatin and centrifuged to collect cells. The cells were collected and resuspended in buffer (PBS+1% FBS) at 1×10⁴ cells/well in a 96-well plate at 100 μL per well. Then the mixture was centrifuged at 350×g for 5 min, and the supernatant was removed.

The target of experiment [2] is T2, Human CLDN18.2. Briefly: cell-based or functional assay.
Experiment [3] concerns the target T2, Human CLDN18.2. Briefly: cell-based or functional assay. This is another data set of the same source.
Experiment [4] has as its target T2, Human CLDN18.2. Put plainly: flow cytometry, NUGC4-hCLDN18.2 cells.
Procedure: as §1

Changes are numbered by the printed parent chain. Names and notes keep the numbering of the source.

B1: Anti-CLDN18.2 monoclonal antibody 2C6.9 (antibody, human IgG1, kappa, V domains shown)
VH: QVQLQESGPGLVKPSETLSLTCTVSGFSLTRYGVSWIRQPPGKGLEWIGVIWGEGNTNYNPSLKSRVTISKDSSKSQVSLKLSSVTAADTAVYYCARVNFGNALDYWGQGTLVTVSS
VL: DIVMTQSPDSLAVSLGERATINCKSSQSLLNSGNQKNYLTWYQQKPGQPPKLLIYWASTRDSGVPDRFSGSGSGTDFTLTISSLQAEDVAVYYCQNDFIFPLTFGGGTKVEIKR
notes: prepared by Wuhan YZY Biopharma
As for B1, the binding result with Human CLDN18.1 was “no binding (tested: 1000 nM)”.

B2: anti-CLDN18.2 monoclonal antibody 1E9.2 (antibody, human IgG1, kappa, V domains shown)
VH: EVQLVESGGGLVKPGGSLRLSCAASGFSFSNSAMSWVRQAPGKGLEWVSTISSGDSYTYYADSVKGRFTISRDNAKNSLYLQMNSLRAEDTAVYYCARQGYGNALDYWGQGTLVTVSS
VL: B1 VL with A57S, D61E, V89F, F98Y, I99Y, F100Y
notes: as for B1
In the case of B2, the binding result with Human CLDN18.1 is on record as “no binding (tested: 1000 nM)”.

B3: bispecific antibody CS5 (bispecific antibody, human IgG1, kappa)
light: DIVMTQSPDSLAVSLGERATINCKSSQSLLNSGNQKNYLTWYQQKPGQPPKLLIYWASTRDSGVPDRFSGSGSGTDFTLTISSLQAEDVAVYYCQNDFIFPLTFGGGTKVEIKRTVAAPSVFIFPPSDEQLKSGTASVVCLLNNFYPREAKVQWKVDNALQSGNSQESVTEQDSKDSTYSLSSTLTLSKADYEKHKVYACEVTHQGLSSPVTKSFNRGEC
heavy 1: QVQLQESGPGLVKPSETLSLTCTVSGFSLTRYGVSWIRQPPGKGLEWIGVIWGEGNTNYNPSLKSRVTISKDSSKSQVSLKLSSVTAADTAVYYCARVNFGNALDYWGQGTLVTVSSASTKGPSVFPLAPSSKSTSGGTAALGCLVKDYFPEPVTVSWNSGALTSGVHTFPAVLQSSGLYSLSSVVTVPSSSLGTQTYICNVNHKPSNTKVDKKVEPKSCDKTHTCPPCPAPPVAGPSVFLFPPKPKDTLMISRTPEVTCVVVDVSHEAPEVQFNWYVDGVEVHNAKTKPREEQFNSTFRVVSVLTVVHQDWLNGKEYKCKVSNKGLPAPIEKTISKTKGQPREPQVYTLPPCRDELTKNQVSLWCLVKGFYPSDIAVEWESNGQPENNYKTTPPVLDSDGSFFLYSKLTVDKSRWQQGNVFSCSVMHEALHNHYTQKSLSLSPGK
heavy 2: QVQLQESGPGLVKPSETLSLTCTVSGFSLTRYGVSWIRQPPGKGLEWIGVIWGEGNTNYNPSLKSRVTISKDSSKSQVSLKLSSVTAADTAVYYCARVNFGNALDYWGQGTLVTVSSASTKGPSVFPLAPSSKSTSGGTAALGCLVKDYFPEPVTVSWNSGALTSGVHTFPAVLQSSGLYSLSSVVTVPSSSLGTQTYICNVNHKPSNTKVDKKVEPKSCDKTHTAPAPAPAPAPAPAPAPQVQLVESGGGVVQPGRSLRLSCAASGFTFSTYAMNWVRQAPGKGLEWVARIRSKYNNYATYYADSVKDRFTISRDDSKNTLYLQMNSLRAEDTAVYYCARHGNFGNSYVSWAAYWGQGTLVTVSSGGGGSGGGGSGGGGSQTVVTQEPSLTVSPGGTVTLTCRSSTGAVTTSNYANWFQQKPGQAPRGLIGGTNKRAPGVPARFSGSLLGGKAALTLSGVQPEDEAEYYCALWYSNLWVFGGGTKVEIKGGGGSDKTHTCPPCPAPPVAGPSVFLFPPKPKDTLMISRTPEVTCVVVDVSHEAPEVQFNWYVDGVEVHNAKTKPREEQFNSTFRVVSVLTVVHQDWLNGKEYKCKVSNKGLPAPIEKTISKTKGQPREPQVCTLPPSRDELTKNQVSLSCAVKGFYPSDIAVEWESNGQPENNYKTTPPVLDSDGSFFLVSKLTVDKSRWQQGNVFSCSVMHEALHNHYTQKSLSLSPGK
notes: CSBODY structure: two 2C6.9 Fab arms; second heavy chain (first heavy entry) and first heavy chain with anti-CD3 scFv (2a5ga) between CH1 and Fc2
In turn, B3 returned an EC50 with Human CLDN18.2 [1] of 25.7 nM. Further, in the experiment with Human CLDN18.2 [2], the “EC50 (pM), in vitro killing by hPBMC, NUGC4-hCLDN18.2 cells” value came out at 132 pM and the “EC50 (pM), in vitro killing by hPBMC, NUGC4 cells” value came to 433 pM. Besides, in the experiment with Human CLDN18.2 [3], the “Induction of expression of CD25 EC50 (pM), NUGC4” value turned out to be 481 pM; the “Induction of expression of CD25 EC50 (pM), NUGC4-hCLDN18.2” value is 142 pM; the “Induction of expression of CD69 EC50 (pM), NUGC4” value is 141 pM; the “Induction of expression of CD69 EC50 (pM), NUGC4-hCLDN18.2” value was 70.5 pM. In the experiment with Human CLDN18.2 [4], the EC50 turned out to be 18.2 nM.

B4: bispecific antibody Y8 (bispecific antibody, human IgG1, kappa)
light: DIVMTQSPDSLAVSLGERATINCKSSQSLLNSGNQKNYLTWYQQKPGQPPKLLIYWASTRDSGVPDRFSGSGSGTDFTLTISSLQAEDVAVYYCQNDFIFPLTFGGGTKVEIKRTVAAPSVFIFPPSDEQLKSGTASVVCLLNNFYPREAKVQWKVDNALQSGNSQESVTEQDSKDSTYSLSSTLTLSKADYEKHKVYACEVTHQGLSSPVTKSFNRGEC
heavy: B3 heavy 1
chain: not shown
notes: YBODY structure: anti-CLDN18.2 Fab arm (2C6.9) and second monomer anti-CD3 scFv (L2K)-Fc
Take B4: the response with Human CLDN18.2 [1] was half-maximal at 75.1 nM (EC50). In the experiment with Human CLDN18.2 [2], the “EC50 (pM), in vitro killing by hPBMC, NUGC4-hCLDN18.2 cells” value was determined as 4.09 pM and the “EC50 (pM), in vitro killing by hPBMC, NUGC4 cells” value was 57.8 pM. Moreover, in the experiment with Human CLDN18.2 [3], the “Induction of expression of CD25 EC50 (pM), NUGC4” value was 182 pM; the “Induction of expression of CD25 EC50 (pM), NUGC4-hCLDN18.2” value is 16.5 pM; the “Induction of expression of CD69 EC50 (pM), NUGC4” value turned out to be 33.3 pM; the “Induction of expression of CD69 EC50 (pM), NUGC4-hCLDN18.2” value amounted to 2.98 pM. The molecule also registered a half-maximal effective concentration (EC50) with Human CLDN18.2 [4] of 46.9 nM.

For the origin of these results see patent publication US20230192903A1 (published 2023).
